Source: patent US11618777B2, “Method of manufacturing membrane protein and utilization thereof” (priority 2015, dated 2023)

Columns and labels:
[1] = target: C-terminal fragment (C-CPE) of Clostridium perfringens enterotoxin (CPE) (Clostridium perfringens, UniProt P01558); details: read-out: KD value
[2] = target: T1, human claudin-4 (residue: 1 to 183) synthesized in a cell-free system (human, UniProt O14493 1-183)
T1 sequence: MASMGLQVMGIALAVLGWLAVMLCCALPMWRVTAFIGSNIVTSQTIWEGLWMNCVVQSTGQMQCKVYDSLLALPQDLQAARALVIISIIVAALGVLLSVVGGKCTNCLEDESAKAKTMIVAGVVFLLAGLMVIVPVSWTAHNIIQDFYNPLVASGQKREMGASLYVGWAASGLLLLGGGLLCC

[3] = GlcT enzyme activity (specific activity) of cell-free synthesized human GlcT; details: GlcT produced by liposome method with porcine brain lipid mixture

B1: human claudin-4: Human claudin-4 (residue 1 to 183), 4-transmembrane tight junction protein produced by the cell-free lipid-detergent method (protein, UniProt O14493 1-183, looked up, fragment)
chain: T1 sequence
Kd [1]: 3.4 nM

B2: GST tag-added C-CPE (ligand)
chain: RCVLTVPSTDIEKEILDLAAATERLNLTDALNSNPAGNLYDWRSSNSYPWTQKLNLHLTITATGQKYRILASKIVDFNIYSNNFNNLVKLEQSLGDGVKDHYVDISLDAGQYVLVMKANSSYSGNYPYSILFQKF
Kd [2]: 3.4 nM

B3: GlcT: Human glucosylceramide synthase, estimated 3-transmembrane enzyme, produced in a cell-free system with lipids (protein, UniProt Q16739 1-394, looked up)
Ceramide glucosyltransferase: MALLDLALEGMAVFGFVLFLVLWLMHFMAIIYTRLHLNKKATDKQPYSKLPGVSLLKPLKGVDPNLINNLETFFELDYPKYEVLLCVQDHDDPAIDVCKKLLGKYPNVDARLFIGGKKVGINPKINNLMPGYEVAKYDLIWICDSGIRVIPDTLTDMVNQMTEKVGLVHGLPYVADRQGFAATLEQVYFGTSHPRYYISANVTGFKCVTGMSCLMRKDVLDQAGGLIAFAQYIAEDYFMAKAIADRGWRFAMSTQVAMQNSGSYSISQFQSRMIRWTKLRINMLPATIICEPISECFVASLIIGWAAHHVFRWDIMVFFMCHCLAWFIFDYIQLRGVQGGTLCFSKLDYAVAWFIRESMTIYIFLSALWDPTISWRTGRYRLRCGGTAEEILDV
specificity (specific activity) relative to sample produced with GalCer (5%), cholesterol (5%), egg PC (90%) [3]: approximately 2.7 times higher
